Patent US20220242973A1 (Molecular Partners, published 2022)

Assays:
[1] = target: T1, Cynomolgus FAP expressed on CHO cells (cynomolgus monkey (Macaca fascicularis)); assay: FACS on cFAP-expressing CHO cells
T1 construct: whole, on cells; also called cFAP-expressing CHO cells; cynomolgus FAP+ CHO cells
Procedure: (§1) Using multi-well plates, 20,000 WI38 cells were added per well in 50 μl of PBS. 50 μl of appropriate dilutions (2× dilution steps) of ankyrin repeat protein was then added to the cells and incubated for 30 minutes on ice. After the ankyrin repeat protein-binding reaction, cells were washed twice with PBS. Direct immunofluorescent detection of the His-tagged ankyrin repeat proteins using Penta-His AF647 conjugate (QIAgen) and determination of live cells using LIVE/DEAD™ Fixable Green Dead Cell Stain Kit (ThermoFisher) were then performed together in one step. The Penta-His AF647 conjugate and the LIVE/DEAD™ Fixable Green dye were applied to the cells together in 1/200 (Penta-His) and 1/1000 (LID Fixable) final dilutions and incubated for 20-30 minutes on ice. After washing the cells with PBS, cells were re-suspended in 1× CellFix™ buffer (BD Biosciences) (10× stock was diluted 1/10 in water). The samples were incubated in CellFix™ buffer for 15-20 minutes at RT, then spun down at 400 g for 5 min. Supernatant was discarded and cells were re-suspended in 200 μl PBS and stored at 4° C. until acquisition and FACS analysis. Acquisition and FACS analysis, including the determination of median fluorescence intensity (MFI), were done within 5 days after staining using an AttuneNxT instrument. Binding curves were fitted by non-linear regression curve fitting using GraphPad Prism software (v 7.0.4).
A series of dilutions of ankyrin repeat proteins were added to cFAP expressing CHO cells. The binding reaction and subsequent analysis and MFI measurements were performed essentially as described in Example 3 for the WI38 cells.

[2] = target: T2, Recombinant human FAP (fibroblast activation protein) (human, UniProt Q12884 26-760); assay: SPR (ProteOn), human FAP immobilized on GLC chip
T2 construct: Bought soluble recombinant protein; Chemically biotinylated for the HTRF screen; also called hFAP; biotinylated human FAP
T2 sequence (looked up): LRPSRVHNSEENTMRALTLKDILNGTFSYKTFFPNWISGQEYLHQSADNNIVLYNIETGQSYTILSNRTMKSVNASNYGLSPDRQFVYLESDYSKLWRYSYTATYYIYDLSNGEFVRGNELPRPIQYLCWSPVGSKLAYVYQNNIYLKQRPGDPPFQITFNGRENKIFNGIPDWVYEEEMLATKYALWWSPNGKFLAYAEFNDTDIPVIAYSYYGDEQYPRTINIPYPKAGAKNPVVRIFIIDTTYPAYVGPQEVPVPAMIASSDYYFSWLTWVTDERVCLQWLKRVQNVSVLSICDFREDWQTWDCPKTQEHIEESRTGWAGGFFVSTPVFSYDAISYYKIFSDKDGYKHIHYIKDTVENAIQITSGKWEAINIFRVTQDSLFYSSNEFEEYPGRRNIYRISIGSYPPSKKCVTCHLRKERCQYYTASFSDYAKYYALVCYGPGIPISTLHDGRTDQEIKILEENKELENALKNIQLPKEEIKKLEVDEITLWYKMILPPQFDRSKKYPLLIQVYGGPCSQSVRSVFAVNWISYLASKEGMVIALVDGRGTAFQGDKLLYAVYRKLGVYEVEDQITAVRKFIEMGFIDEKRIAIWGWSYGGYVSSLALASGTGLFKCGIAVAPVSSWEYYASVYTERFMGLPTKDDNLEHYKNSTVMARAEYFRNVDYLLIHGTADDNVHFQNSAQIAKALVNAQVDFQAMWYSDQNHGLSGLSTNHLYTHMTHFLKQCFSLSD
Procedure: Briefly, human FAP was diluted in 10 mM Na-acetate pH 5.3 buffer and covalently immobilized on a GLC chip (BioRad) to a level of around 2000 resonance units (RU). The interaction of ankyrin repeat protein and hFAP was then measured by injecting 200 μl running buffer (PBS, pH 7.4 containing 0.005% Tween 20®) containing serial dilutions of ankyrin repeat proteins covering a concentration range between 30 nM and 0.5 nM (on-rate measurement), followed by a running buffer flow for at least 25 minutes at a constant flow rate of 100 μl/min (off-rate measurement). The regeneration was performed using 15 μl of 10 mM Glycine pH 2 followed by 15 μl of 124 mM H₃PO₄. The signals (i.e. resonance unit (RU) values) of the interspots and a reference injection (i.e. injection of running buffer only) were subtracted from the RU traces obtained after injection of ankyrin repeat protein (double-referencing). Based on the SPR traces obtained from the on-rate and off-rate measurements, the on- and off-rate of the corresponding ankyrin repeat protein—FAP interaction was determined.
Dissociation constants (KD) were calculated from the estimated on- and off-rates using standard procedures known to the person skilled in the art. […] Table 1 provides the KD values of some selected ankyrin repeat proteins as examples.

[3] = target: T3, Human FAP expressed on the cell surface (WI38, CHO-FAP1.9, U87MG cells) (human, UniProt Q12884 1-760); assay: FACS on FAP-expressing WI38 cells, Penta-His AF647 detection
T3 construct: whole, on cells; Endogenous on WI38 and U87MG cells; from a human FAP cDNA (OriGene) in CHO-FAP1.9 cells; also called hFAP; FAP+ cells
T3 sequence (looked up): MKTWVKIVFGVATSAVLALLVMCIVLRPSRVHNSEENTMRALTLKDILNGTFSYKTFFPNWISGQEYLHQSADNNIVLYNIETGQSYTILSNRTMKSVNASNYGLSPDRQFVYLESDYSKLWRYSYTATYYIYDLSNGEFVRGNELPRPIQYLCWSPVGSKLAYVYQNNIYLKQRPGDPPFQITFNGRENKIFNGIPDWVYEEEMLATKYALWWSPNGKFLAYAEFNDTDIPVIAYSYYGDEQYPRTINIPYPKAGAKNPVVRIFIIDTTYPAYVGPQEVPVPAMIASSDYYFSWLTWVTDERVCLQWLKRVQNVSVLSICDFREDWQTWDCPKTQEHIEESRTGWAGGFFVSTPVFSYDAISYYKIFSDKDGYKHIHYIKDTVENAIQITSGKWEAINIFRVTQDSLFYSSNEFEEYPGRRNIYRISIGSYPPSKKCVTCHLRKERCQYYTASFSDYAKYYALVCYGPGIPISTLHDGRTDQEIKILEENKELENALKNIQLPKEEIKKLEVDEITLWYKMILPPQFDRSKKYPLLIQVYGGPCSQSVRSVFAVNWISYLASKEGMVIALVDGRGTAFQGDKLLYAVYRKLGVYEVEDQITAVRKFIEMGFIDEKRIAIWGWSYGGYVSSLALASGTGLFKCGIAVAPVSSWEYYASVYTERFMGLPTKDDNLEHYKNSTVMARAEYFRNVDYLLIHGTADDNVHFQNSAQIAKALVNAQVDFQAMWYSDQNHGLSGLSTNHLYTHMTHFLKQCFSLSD
Procedure: as §1
EC₅₀ values were determined using standard procedures known to the person skilled in the art. […] Table 2 provides the EC₅₀ values of selected ankyrin repeat proteins as examples.

[4] = target: T2, Recombinant human FAP (fibroblast …); assay: cell-based or functional assay

EC50 [1]	Kd [2]	EC50 [3]	FAP activity (%) [4]	Binder
4.1 nM	0.195 nM	0.308 nM	94%	DARPin® protein #19 (designed binder) MRGSHHHHHHGSYPYDVPDYAGSDLGEKLLVAALYGQDDEVRILLAAGADVNAKDQWGLTPLHKAALQGHLEIVEVLLKAGADVNAKDERGHTPLHWAARFGHLEIVEVLLKAGADVNAQDQKGYTPADLAALWGHEDIAEVLQKLN
	7.02 nM	0.65 nM	101%	DARPin® protein #30 (designed binder) MRGSHHHHHHGSYPYDVPDYAGSDMGKKLLEAARAGQDDEVRELLKAGADVNAKDEWGWTPLHVAAERGHLEIVEVLLKAGADVNAKDKHGVTPLHLAAWRGHLEIVEVLLKAGADVNAKDIQGLTPLHIAAHQGHLEIVEVLLKAGADVNAQDKSGKTPADLAADAGHEDIAEVLQKLN
7.9 nM	0.241 nM	0.205 nM	102%	DARPin® protein #33 (designed binder) MRGSHHHHHHGSYPYDVPDYAGSDLGKKLLEAARAGQDDEVRELLKAGADVNAKDEWGKTPLHLAAIRGHLEIVEVLLKAGADVNAKDTHGITPLHLAAFVGHLEIVEVLLKAGADVNAKDYLGRTPLHIAAAKGHLEIVEVLLKAGADVNAQDKSGKTPADLAADAGHEDIVEVLQKLN
	0.186 nM	0.276 nM	115%	DARPin® protein #9 (designed binder) MRGSHHHHHHGSYPYDVPDYAGSDLGKKLLEAARAGQDDEVRILMANGADVNAFDTTGRTPLHLAALWGHLEIVEVLLKHGADVNASDWFSITPLHLAAFMGHLEIVEVLLNHGADVNAQDKFGKTAFDISIDHGNEDLAEILQKLN

The next lines start with the binder.

Binder	EC50 [1]	Kd [2]	EC50 [3]	FAP activity (%) [4]
DARPin® protein #18 (designed binder) MRGSHHHHHHGSYPYDVPDYAGSDLGKKLLEAARAGQDDEVRILLAAGADVNAKDVLGWTPLHLAAFEGHLEIVEVLLKAGADVNAKDKKGWTPLQLAARTGHLEIVEVLLKAGADVNAKDHIGATPLHLAAWQGHPEIVEVLLKAGADVNAQDKSGKTPADLAADAGHEDIAEVLQKLN	5.6 nM	0.115 nM	0.188 nM	112%
DARPin® protein #26 (designed binder) MRGSHHHHHHGSYPYDVPDYAGSDLGKKLLEAARAGQDDEVRELLKAGADVNAKDEVGRTPLHLAAQIGHLEIVEVLLKAGADVNAKNRWGVTPLHVAAWVGHLEIVEVLLKAGADVNAKDQQGATPLHLAAIRGHLEIVEVLLKAGADVNAQDKSGKTPADLAADAGHEDIAEVLQKLN	6.1 nM	0.053 nM	0.15 nM	106%
DARPin® protein #4 (designed binder) MRGSHHHHHHGSYPYDVPDYAGSDLGHKLLEAATQGQDDEVRILLAAGADVNAKDEHGKTPLHLAAKKGHLEIVEVLLKAGADVNAKDDWGVTPLHLAAYWGHLEIVEVLLKAGADVNAQDNDGYTPADLAATFGHEDIAEVLQKLN		1.35 nM	1.09 nM	111%
